Measured values from patent US20260062487A1 (GRITSTONE BIO, published 2026).
Where two headings read alike, the source gives them in different places.

Legend:
[1] = target: T1, HLA-PEPTIDE target A*01:01_… (G2) on cells (human); assay: flow cytometry, anti IgG PE, A375 9mer cells (1e6 copies per cell)
T1 construct: whole, on cells; also recovered from cell lysates in the IP-MS experiment; also called G2 pHLA; G2 target
Experimental: (§1) A375 transduced with luciferase alone served as the negative control. […] Binding was determined by flow cytometery using an anti IgG-PE antibody for detection.

[2] = target: T1, HLA-PEPTIDE target A*01:01_… (G2) on …; assay: as above; remark: listed apart in the source
Experimental: as §1

[3] = target: T2, refolded A*01:01/b2m complex with the ROBO1 peptide … (human, UniProt P61769 21-119); assay: Octet biolayer interferometry, 120 s association and 120 s dissociation
T2 construct: also called ROBO1 pHLA complex

[4] = target: T3, biotinylated refolded G2-pHLA (A*01:01/b2m/…) (human, biotinylated at the C-terminal AviTag); assay: as above
T3 construct: Soluble complex caught on streptavidin sensors or MSD plates; also called G2-peptide A*01:01/b2m complex; WT

CD3 on CD3+ Jurkat cells [5] = target: T4, CD3 on CD3+ Jurkat cells (human, UniProt P07766 23-207); assay: flow cytometry, anti IgG PE, CD3+ Jurkat cells
T4 construct: whole, on cells
T4 sequence (P07766 23-207): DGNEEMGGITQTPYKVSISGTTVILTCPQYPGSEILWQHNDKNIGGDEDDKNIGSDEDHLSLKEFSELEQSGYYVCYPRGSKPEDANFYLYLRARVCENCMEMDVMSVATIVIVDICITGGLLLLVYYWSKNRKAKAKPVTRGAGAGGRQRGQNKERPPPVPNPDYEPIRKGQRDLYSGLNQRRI
Experimental: Increasing concentrations of the antibodies were incubated with CD3(+) and CD9(−) Jurkat cells. Binding was determined by flow cytometery using an anti IgG-PE antibody for detection.

[6] = target: T2, refolded A*01:01/b2m complex with the …; assay: BLI (Octet), refolded pHLA
CD3 on CD3+ Jurkat cells [7] = target: T4, CD3 on CD3+ Jurkat cells; assay: flow cytometry, anti IgG PE, CD3+ Jurkat cells; remark: listed apart in the source
[8] = target: T1, HLA-PEPTIDE target A*01:01_… (G2) on …; assay: flow cytometry, A375 cells expressing the CT83 pHLA 9-mer
Experimental: as §1

[9] = target: T5, G5 pHLA (HLA-B*35:01 with …) on cells (human); assay: flow cytometry, anti IgG PE, LN229 G5 9mer cells (4500 copies per cell)
T5 construct: whole, on cells

B1: 41-E07 UCHT1v9 (Format 41 31E07-CD3 bispecific antibody) (bispecific antibody, human IgG1, kappa)
chain: QVQLVQSGAEVKKPGASVKVSCKASGFTFTNYLIHWVRQAPGQGLEWMGWINPNSGGTNYAQRLQGRVTMTRDTSTSTVYMELSSLRSEDTAVYYCARDYGAGNDYWGQGTLVTVSSGGGGSGGGGSDIQMTQSPSSLSASVGDRVTITCRASQEIRRWLAWYQQKPGKAPKLLIYAASNLQSGVPSRFSGSGSGTDFTLTISSLQPEDFATYYCQQSYSTPYTFGQGTKLEIKGGGGSEPKSSDKTHTCPPCPAPEFEGGPSVFLFPPKPKDTLMISRTPEVTCVVVDVSHEDPEVKFNWYVDGVEVHNAKTKPREEQYNSTYRVVSVLTVLHQDWLNGKEYKCKVSNKALPASIEKTISKAKGQPREPQVYTLPPCREEMTKNQVSLWCLVKGFYPSDIAVEWESNGQPENNYKTTPPVLDSDGSFFLYSKLTVDKSRWQQGNVFSCSVMHEALHNHYTQKSLSLSPGK
heavy: QVQLVQSGAEVKKPGASVKVSCKASGFTFTNYLIHWVRQAPGQGLEWMGWINPNSGGTNYAQRLQGRVTMTRDTSTSTVYMELSSLRSEDTAVYYCARDYGAGNDYWGQGTLVTVSSGGGGSGGGGSDIQMTQSPSSLSASVGDRVTITCRASQEIRRWLAWYQQKPGKAPKLLIYAASNLQSGVPSRFSGSGSGTDFTLTISSLQPEDFATYYCQQSYSTPYTFGQGTKLEIKGGGGSGGGGSEVQLVESGGGLVQPGGSLRLSCAASGYSFTGYTMNWVRQAPGKGLEWVALINPYKGVSTYNQKFKDRFTISVDKSKNTAYLQMNSLRAEDTAVYYCARSGYYGDSDWYFDVWGQGTLVTVSSASTKGPSVFPLAPSSKSTSGGTAALGCLVKDYFPEPVTVSWNSGALTSGVHTFPAVLQSSGLYSLSSVVTVPSSSLGTQTYICNVNHKPSNTKVDKRVEPKSCDKTHTCPPCPAPEFEGGPSVFLFPPKPKDTLMISRTPEVTCVVVDVSHEDPEVKFNWYVDGVEVHNAKTKPREEQYNSTYRVVSVLTVLHQDWLNGKEYKCKVSNKALPASIEKTISKAKGQPREPQVCTLPPSREEMTKNQVSLSCAVKGFYPSDIAVEWESNGQPENNYKTTPPVLDSDGSFFLVSKLTVDKSRWQQGNVFSCSVMHEALHNRFTQKSLSLSPGK
light: not shown
notes: also called 41-31E07-UCHT1v9; 41-E07 hUCHT1v9
EC50 (read off the curve) [1]: ~2 nM | EC50 (read off the curve) [2]: ~2 nM | Kd [3]: 5.52 nM | koff [3]: 0.00557 s⁻¹ | kon [3]: 1.01e+06 M⁻¹ s⁻¹ | Kd [4]: < 1 pM | koff [4]: < 1e-07 s⁻¹ | kon [4]: 566000 M⁻¹ s⁻¹ | EC50 (read off the curve) (CD3 on CD3+ Jurkat cells [5]): ~3 nM | times less binding affinity than to the G2-peptide A*01:01/b2m complex [6]: 5000 fold | EC50 (read off the curve) (CD3 on CD3+ Jurkat cells [7]): ~2 nM

B2: 43-E07 UCHT1v9 (Format 43 31E07-CD3 bispecific antibody) (bispecific antibody, human IgG1, kappa)
chain: EVQLVESGGGLVQPGGSLRLSCAASGYSFTGYTMNWVRQAPGKGLEWVALINPYKGVSTYNQKFKDRFTISVDKSKNTAYLQMNSLRAEDTAVYYCARSGYYGDSDWYFDVWGQGTLVTVSSGGGGSGGGGSDIQMTQSPSSLSASVGDRVTITCRASQEIRRWLAWYQQKPGKAPKLLIYAASNLQSGVPSRFSGSGSGTDFTLTISSLQPEDFATYYCQQSYSTPYTFGQGTKLEIKGGGGSEPKSSDKTHTCPPCPAPEFEGGPSVFLFPPKPKDTLMISRTPEVTCVVVDVSHEDPEVKFNWYVDGVEVHNAKTKPREEQYNSTYRVVSVLTVLHQDWLNGKEYKCKVSNKALPASIEKTISKAKGQPREPQVYTLPPCREEMTKNQVSLWCLVKGFYPSDIAVEWESNGQPENNYKTTPPVLDSDGSFFLYSKLTVDKSRWQQGNVFSCSVMHEALHNHYTQKSLSLSPGK
heavy: QVQLVQSGAEVKKPGASVKVSCKASGFTFTNYLIHWVRQAPGQGLEWMGWINPNSGGTNYAQRLQGRVTMTRDTSTSTVYMELSSLRSEDTAVYYCARDYGAGNDYWGQGTLVTVSSGGGGSGGGGSDIQMTQSPSSLSASVGDRVTITCRASQDIRNYLNWYQQKPGKAPKLLIYYTSRLESGVPSRFSGSGSGTDYTLTISSLQPEDFATYYCQQGNTLPWTFGQGTKVEIKGGGGSGGGGSQVQLVQSGAEVKKPGASVKVSCKASGFTFTNYLIHWVRQAPGQGLEWMGWINPNSGGTNYAQRLQGRVTMTRDTSTSTVYMELSSLRSEDTAVYYCARDYGAGNDYWGQGTLVTVSSASTKGPSVFPLAPSSKSTSGGTAALGCLVKDYFPEPVTVSWNSGALTSGVHTFPAVLQSSGLYSLSSVVTVPSSSLGTQTYICNVNHKPSNTKVDKRVEPKSCDKTHTCPPCPAPEFEGGPSVFLFPPKPKDTLMISRTPEVTCVVVDVSHEDPEVKFNWYVDGVEVHNAKTKPREEQYNSTYRVVSVLTVLHQDWLNGKEYKCKVSNKALPASIEKTISKAKGQPREPQVCTLPPSREEMTKNQVSLSCAVKGFYPSDIAVEWESNGQPENNYKTTPPVLDSDGSFFLVSKLTVDKSRWQQGNVFSCSVMHEALHNRFTQKSLSLSPGK
light: DIQMTQSPSSLSASVGDRVTITCRASQEIRRWLAWYQQKPGKAPKLLIYAASNLQSGVPSRFSGSGSGTDFTLTISSLQPEDFATYYCQQSYSTPYTFGQGTKLEIKRTVAAPSVFIFPPSDEQLKSGTASVVCLLNNFYPREAKVQWKVDNALQSGNSQESVTEQDSKDSTYSLSSTLTLSKADYEKHKVYACEVTHQGLSSPVTKSFNRGEC
notes: also called 43-E07 hUCHT1v9; 43-31E07-GGGGS-UCHT1v9
EC50 (read off the curve) [2]: ~0.3 nM | fold increase in binding against 41-E07 UCHT1v9 [8]: ~10 fold

B3: 41-G5(1C12) UCHT1v9 diabody (bispecific antibody, human IgG1, kappa)
chain: QVQLVQSGAEVKKPGSSVKVSCKASGGTFSNFGVSWLRQAPGQGLEWMGGIIPILGTANYAQKFQGRVTITADESTSTAYMELSSLRSEDTAVYYCATPTNSGYYGPYYYYGMDVWGQGTTVTVSSGGGGSGGGGSDIQMTQSPSSLSASVGDRVTITCRASQSISSWLAWYQQKPGKAPKLLIYAASTLQSGVPSRFSGSGSGTDFTLTISSLQPEDFATYYCQQSYSIPLTFGGGTKVEIKGGGGSEPKSSDKTHTCPPCPAPEFEGGPSVFLFPPKPKDTLMISRTPEVTCVVVDVSHEDPEVKFNWYVDGVEVHNAKTKPREEQYNSTYRVVSVLTVLHQDWLNGKEYKCKVSNKALPASIEKTISKAKGQPREPQVYTLPPCREEMTKNQVSLWCLVKGFYPSDIAVEWESNGQPENNYKTTPPVLDSDGSFFLYSKLTVDKSRWQQGNVFSCSVMHEALHNHYTQKSLSLSPGK
heavy: QVQLVQSGAEVKKPGSSVKVSCKASGGTFSNFGVSWLRQAPGQGLEWMGGIIPILGTANYAQKFQGRVTITADESTSTAYMELSSLRSEDTAVYYCATPTNSGYYGPYYYYGMDVWGQGTTVTVSSGGGGSGGGGSDIQMTQSPSSLSASVGDRVTITCRASQSISSWLAWYQQKPGKAPKLLIYAASTLQSGVPSRFSGSGSGTDFTLTISSLQPEDFATYYCQQSYSIPLTFGGGTKVEIKGGGGSGGGGSEVQLVESGGGLVQPGGSLRLSCAASGYSFTGYTMNWVRQAPGKGLEWVALINPYKGVSTYNQKFKDRFTISVDKSKNTAYLQMNSLRAEDTAVYYCARSGYYGDSDWYFDVWGQGTLVTVSSASTKGPSVFPLAPSSKSTSGGTAALGCLVKDYFPEPVTVSWNSGALTSGVHTFPAVLQSSGLYSLSSVVTVPSSSLGTQTYICNVNHKPSNTKVDKRVEPKSCDKTHTCPPCPAPEFEGGPSVFLFPPKPKDTLMISRTPEVTCVVVDVSHEDPEVKFNWYVDGVEVHNAKTKPREEQYNSTYRVVSVLTVLHQDWLNGKEYKCKVSNKALPASIEKTISKAKGQPREPQVCTLPPSREEMTKNQVSLSCAVKGFYPSDIAVEWESNGQPENNYKTTPPVLDSDGSFFLVSKLTVDKSRWQQGNVFSCSVMHEALHNRFTQKSLSLSPGK
light: not shown
notes: also called 41-G5(1C12) hUCHT1v9; 41-G5 UCHT1v9
EC50 (read off the curve) (CD3 on CD3+ Jurkat cells [7]): ~4 nM | EC50 (read off the curve) [9]: ~4 nM
